Test results as given in patent publication US5652133A, “Cloning and expression of the human macrophage inflammatory protein-1.alpha . α) /rantes receptor” (The United States of America as represented by the …, priority 1993, dated 1997).

T1: MIP-1α/RANTES receptor (Homo sapiens, UniProt P32246)
T1 construct: I.D. No. 1; expressed in transfected cells; host or cells: Xenopus laevis oocytes microinjected with receptor cRNA
T1 sequence (P32246 1-355): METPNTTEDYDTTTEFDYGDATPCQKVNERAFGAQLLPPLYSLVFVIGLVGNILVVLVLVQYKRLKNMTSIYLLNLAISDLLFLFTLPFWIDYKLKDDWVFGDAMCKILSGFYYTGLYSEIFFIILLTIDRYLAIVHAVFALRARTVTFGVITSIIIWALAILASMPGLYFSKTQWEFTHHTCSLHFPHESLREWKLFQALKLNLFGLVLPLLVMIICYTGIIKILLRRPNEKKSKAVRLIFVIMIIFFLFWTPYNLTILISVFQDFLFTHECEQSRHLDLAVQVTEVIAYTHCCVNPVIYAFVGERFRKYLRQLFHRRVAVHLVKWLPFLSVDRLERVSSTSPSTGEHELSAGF

B1: C5a: C5a, ligand tested in the oocyte calcium efflux screen (protein, UniProt P01031 678-751, looked up)
C5a anaphylatoxin: TLQKKIEEIAAKYKHSVVKKCCYDGACVNNDETCEQRAARISLGPRCIKAFTECCVVASQLRANISHKDMQLGR
modifications: C5a anaphylatoxin
notes: C5a, ligand tested in the oocyte calcium efflux screen
B2: NAP-2: recombinant human neutrophil activating peptide-2 (Bachem Bioscience) (protein, UniProt P02775 59-128, looked up)
Neutrophil-activating peptide …: AELRCMCIKTTSGIHPKNIQSLEVIGKGTHCNQVEVIATLKDGRKICLDPDAPRIKKIVQKKLAGDESAD
modifications: Neutrophil-activating peptide 2
B3: MIP-1β: recombinant human MIP-1β, diluted supernatant of Sf9 insect cells (clone pAT744) (protein, UniProt P13236 24-92, looked up)
C-C motif chemokine 4: APMGSDPPTACCFSYTARKLPRNFVVDYYETSSLCSQPAVVFQTKRSKQVCADPSESWVQEYVYDLELN

Legend:
[1] = target: T1, MIP-1α/RANTES receptor; experiment: Calcium efflux assay in Xenopus oocytes injected with MIP-1α/RANTES receptor cRNA; type: cell-based; details: for responsiveness of cRNA-injected oocytes to ligand (calcium efflux): oocytes injected with 10 ng receptor cRNA, IL-8, GRO-α, NAP-2 at 500 nM, MIP-1α/MIP-1β Sf9 supernatant 1:5, panel C ligands at 250 nM
Protocol: (§1) The materials and methods used for the calcium efflux assay were as described in Murphy, et al., J. Immunol. 145:2227-2234 (1990). Adult female laboratory bred Xenopus laevis (Nasco, Fort Atkinson, Wis.) were maintained at 19° C. to 22° C. in a light-dark cycle of 12 h per phase. The frogs were anesthetized and ovarian lobes were resected and defolliculated in OR2 solution (82.5 mM NaCl, 1 mM MgCl2, 2.4 mM KCl, 5 mM HEPES, pH 7.5) containing 2 mg/ml collagenase for 2 h on a rotary shaker. Stage V-VI oocytes were transferred to ND96 solution (96 mM NaCl, 2 mM KCl, 1.8 mM CaCl2, 1 mM MgCl2, 2.4 mM sodium pyruvate, penicillin 100 U/ml, streptomycin 100 μg/ml, 5 mM HEPES, pH 7.4 to 7.5).
(§2) After 1-2 days, oocytes were microinjected with RNA samples in a total volume of 50 nl per oocyte and were then incubated in ND96 solution at 20° C. to 23° C. for 3 to 5 days. Oocytes were then incubated in 500 μl of OR2 medium containing ^45 Ca^2+ [50 μCi/ml (ICN Biomedicals, Costa Mesa, Calif.)] for 3 hours at 20° C. After ten washes with ND96 medium, individual oocytes were stimulated with ligand in wells of a 96-well tissue culture plate containing 100 μl of ND96 medium. Three 100 μl samples of the incubation medium were collected and analyzed by liquid scintillation counting: a) the final 100 μl wash (20 min) before application of ligand; b) fluid containing the stimulus, removed after a 20 min incubation with the oocyte; and c) the oocyte solubilized in SDS (1%) in medium 20 min after stimulation. Data are presented as the mean±standard error of the mean (SEM) of the percent of loaded ^45 Ca^2+ that was released by individual oocytes in response to the stimulus, or [(b-a).div.(b+c)]×100.
Ligands were all human recombinant material obtained from the following sources: MIP-1α (R and D Systems, Minneapolis, Minn.); IL-8, RANTES, and MCAF (Genzyme, Cambridge, Mass.); NAP-2 (Bachem Bioscience, Philadelphia, Pa.); GRO-α (a gift from M. P. Beckmann, S. Lyman and D. Cerretti). MIP-1α and MIP-1β used in a ligand screen was a gift of U. Siebenlist (NIAID, Bethesda, Md.) and were used as a diluted supernatant of Sf9 insect cells expressing immunoreactive recombinant human MIP-1α (from clone pAT464) or MIP-1β (from clone pAT744) that was prepared as described in Zipfel et al. J. Immunol. 142:1582-1590 (1989) and Zipfel et al. Lymph. Cyto. Res. 11:141-148 (1992). All proteins were diluted from aqueous stock solutions or culture supernatants into ND96 oocyte media (96 mM NaCl, […], pH 7.45) containing 0.1% bovine serum albumin.
Five days after injection with 10 ng of either MIP-1α/RANTES receptor cRNA (closed bars) or IL-8 receptor B cRNA (open bars), oocytes were stimulated with recombinant human IL-8, GRO-α or NAP-2 at 500 nM, or a 1:5 dilution of an Sf9 supernatant containing recombinant human MIP-1α or MIP-1β. […] Oocytes injected with 50 ng HL-60 RNA (closed circle) or 10 ng of MIP-1α/RANTES receptor cRNA (open circle) were stimulated with the indicated concentration of recombinant human MIP-1α. […] Oocytes were injected with either HL-60 RNA (open bars) or MIP-1α/RANTES receptor cRNA (closed bars) and stimulated with the indicated ligand at 250 nM. In panels A-C, the data derive from 5-8 replicate determinations per point.

[2] = system: IL-8 receptor B; experiment: Calcium efflux assay in Xenopus oocytes injected with IL-8 receptor B cRNA; type: cell-based, human; details: oocytes injected with 10 ng IL-8 receptor B cRNA; 1:5 dilution of Sf9 supernatant
Protocol: as §1
as §2, with “After ten washes with ND96 medium, individual oocytes were stimulated with ligand in wells of a 96-well tissue culture plate containing 100 μl of ND96 medium.” left out, “Data are presented as the mean±standard error of the mean (SEM) of the percent of loaded ^45 Ca^2+ that was released by individual oocytes in response to the stimulus, or [(b-a).div.(b+c)]×100.” left out

[3] = target: T1, MIP-1α/RANTES receptor; experiment: Radioligand binding of 125I-MIP-1α to oocytes injected with MIP-1α/RANTES receptor cRNA
Protocol: Carrier free recombinant human MIP-1α 10 μg (Genzyme, Cambridge, Mass.) was labeled using 5 mCi Na^125 I (Amersham, Arlington Heights, Ill.) in 100 μl 0.2M sodium phosphate, pH 7.2 and 50 μl reconstituted Enzymobeads (BioRad, Richmond, AC). The reaction was started using 25 μl 1% β-D-glucose and allowed to continue for 20 minutes. Labeled sample was separated from the free iodine using a NAP-5 column (Pharmacia LKB, Piscataway, N.J.) which had been previously rinsed with 1% bovine serum albumin in 0.2M sodium phosphate, pH 7.2. Labeled material was collected from the column and analyzed on a 14% acrylamide gel. Single oocytes were incubated with ^125 I-MIP-1α for 30 min on ice in 10 μl of binding buffer (Hanks' balanced salt solution with 25 mM HEPES, 1% bovine serum albumin, pH 7.4). Unbound ligand was removed by centrifugation of the oocyte through 300 μl of F50 silicone fluid (General Electric, Waterford, N.Y.). The tubes were quickly frozen and gamma emissions from the amputated tips were counted.
Binding of ^125 I-labeled MIP-1α to oocytes injected with MIP-1α/RANTES receptor cRNA. (A) Total (closed circles) and non-specific binding (open circles) was determined by incubating oocytes injected with MIP-1α/RANTES receptor cRNA with the indicated concentration of ^125 I-labeled MIP-1α in the absence or presence of a 100 fold molar excess of unlabeled MIP-1α, respectively. […]

[4] = system: IL-8 receptor B; experiment: Radioligand binding of 125I-MIP-1α to oocytes expressing IL-8 receptor B; design: species or system human; details: single oocytes, 30 min on ice

Molecule | responsiveness of cRNA-injected oocytes to ligand (calcium efflux) [1] | also measured
CCCCCCCCCCCCCCCCOCC(COP(=O)([O-])OCC[N+](C)(C)C)OC(C)=O (stereo not shown) [platelet activating factor, reference compound] | inactive | 
O=c1ccn([C@@H]2O[C@H](COP(=O)(O)OP(=O)(O)OP(=O)(O)O)[C@@H](O)[C@H]2O)c(=O)[nH]1 [UTP, reference compound] | inactive | 
MIP-1α: recombinant human Macrophage Inflammatory Protein-1α, β chemokine (R and D Systems; or Sf9 supernatant) | acquired responsiveness | concentration at which the first phase of the oocyte response appeared to saturate ([1]; calcium efflux, first phase): ~100 NM; concentration at which the second phase of the oocyte response did not reach a plateau ([1]; calcium efflux, second phase): > 5 µM; activation of IL-8 receptor B (calcium efflux) [2]: Neither MIPα nor MIP-1β activated
MCP-1: human recombinant Monocyte Chemoattractant Protein-1 (MCAF, Genzyme) | not | 
NCCc1c[nH]cn1 [histamine, reference compound] | inactive | 
CSCC[C@H](NC=O)C(=O)N[C@@H](CC(C)C)C(=O)N[C@@H](Cc1ccccc1)C(=O)O [f-met-leu-phe, reference compound] | inactive | 
Nc1ncnc2c1ncn2[C@@H]1O[C@H](COP(=O)(O)OP(=O)(O)OP(=O)(O)O)[C@@H](O)[C@H]1O [ATP, reference compound] | inactive | 
CCCCC[C@H](O)/C=C/[C@H]1[C@H](O)CC(=O)[C@@H]1C/C=C\CCCC(=O)O [Prostaglandin E2, reference compound] | inactive | 
GROα: recombinant human GROα/melanoma growth stimulatory activity, α chemokine | not | 
^125 I-MIP-1α: carrier free recombinant human MIP-1α (Genzyme) labeled with Na125I |  | threshold for detection of specific binding [3]: the same as that required for stimulation of calcium efflux; specific binding to oocytes expressing IL-8 receptor B [4]: did not bind specifically; specific binding to oocytes expressing IL-8 receptor B ([4]; listed as 125 I-labeled MIP-1α): undetectable
IL-8: recombinant human interleukin-8, α chemokine (Genzyme) | not | 
RANTES: recombinant human β chemokine, Regulated on Activation, Normal T Expressed and Secreted (Genzyme) | acquired responsiveness | EC50 ([1]; calcium efflux, oocytes injected with receptor cRNA): ~50 nM
B1 | inactive | 
B2 | not | 
B3 | not | activation of IL-8 receptor B (calcium efflux) [2]: Neither MIPα nor MIP-1β activated
